Results as given in paper PMC2706497.

Substrate: NCCCCc1ccccc1
Assay: steady-state kinetics
Assay type: biochemical, Homo sapiens
Conditions: FAD (covalent)

B1: MAO-B (Homo sapiens) (protein)
chain: SNKCDVVVVGGGISGMAAAKLLHDSGLNVVVLEARDRVGGRTYTLRNQKVKYVDLGGSYVGPTQNRILRLAKELGLETYKVNEVERLIHHVKGKSYPFRGPFPPVWNPITYLDHNNFWRTMDDMGREIPSDAPWKAPLAEEWDNMTMKELLDKLCWTESAKQLATLFVNLCVTAETHEVSALWFLWYVKQCGGTTRIISTTNGGQERKFVGGSGQVSERIMDLLGDRVKLERPVIYIDQTRENVLVETLNHEMYEAKYVISAIPPTLGMKIHFNPPLPMMRNQMITRVPLGSVIKCIVYYKEPFWRKKDYCGTMIIDGEEAPVAYTLDDTKPEGNYAAIMGFILAHKARKLARLTKEERLKKLCELYAKVLGSLEALEPVHYEEKNWCEEQYSGGCYTTYFPPGILTQYGRVLRQPVDRIYFAGTETATHWSGYMEGAVEAGERAAREILHAMGKIPEDEIWQSEPESVDVPAQPITTTFLERHLPSVPGLLRLIGLTTIFSATALGFLAHKRGLLVRV
Km: 19 ± 3 µM
